# B1: C16 peptide (derived from the STAT3-binding sites of SHF) (peptide, UniProt Q7M4L6 388-421, looked up)
# peptide: PFSSVPEIVHHYASRKLPIKGAEHMSLLYPVAIR
# modifications: palmitic acid at the N-terminus; amidated C-terminus
# notes: '3× His tags' is not explained further (three histidines or three His tags); source: synthetic peptide (Genscript; solid-phase Fmoc synthesis, RP-HPLC, purity above 95%); not shown: 3× His tags, C-terminal, kept
# Biological target: T1, recombinant STAT3 (immobilized, static adsorption assay) (UniProt P40763 1-770)
# T1 construct: STAT3, called 'recombinant STAT3' in the legend and 'immobilized STAT3 peptide' in the results; also called immobilized STAT3; STAT3 (powder)
# Experiment: static adsorption equilibrium assay; immobilized STAT3 (85 nmol g^-1 wet gel) in 20 mL PBS with 2-20 µM C16 or scramble, stirred 12 h; free peptide by absorbance at 240 nm; Langmuir isotherm
# Settings: both partners purified
# T1 sequence (P40763 whole entry): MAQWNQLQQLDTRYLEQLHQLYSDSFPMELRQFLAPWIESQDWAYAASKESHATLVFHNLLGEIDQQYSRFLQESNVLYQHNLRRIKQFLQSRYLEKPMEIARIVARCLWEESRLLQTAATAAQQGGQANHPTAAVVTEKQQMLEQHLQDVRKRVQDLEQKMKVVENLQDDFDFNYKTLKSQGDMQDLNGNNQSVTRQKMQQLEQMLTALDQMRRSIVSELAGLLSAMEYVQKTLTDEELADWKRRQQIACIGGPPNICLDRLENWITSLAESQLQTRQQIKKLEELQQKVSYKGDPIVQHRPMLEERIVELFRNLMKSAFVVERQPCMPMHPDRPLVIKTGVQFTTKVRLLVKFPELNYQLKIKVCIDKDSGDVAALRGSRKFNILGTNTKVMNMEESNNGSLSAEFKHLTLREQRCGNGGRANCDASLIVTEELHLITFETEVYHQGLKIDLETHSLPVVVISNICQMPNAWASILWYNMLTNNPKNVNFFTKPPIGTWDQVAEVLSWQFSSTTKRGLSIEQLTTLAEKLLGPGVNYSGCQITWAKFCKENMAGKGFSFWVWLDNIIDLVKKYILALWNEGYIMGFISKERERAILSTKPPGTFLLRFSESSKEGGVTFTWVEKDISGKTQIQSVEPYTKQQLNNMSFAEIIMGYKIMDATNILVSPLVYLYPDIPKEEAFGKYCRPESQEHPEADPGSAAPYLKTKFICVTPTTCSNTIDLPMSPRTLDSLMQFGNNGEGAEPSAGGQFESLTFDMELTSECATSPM
binder,measurement,value
B1,stoichiometry N,1

# Reference: publication PMC9475553, “SHF Acts as a Novel Tumor Suppressor in Glioblastoma Multiforme by Disrupting STAT3 Dimerization” (Advanced Science, 2022)
